The text below walks through data of article doi:10.1101/2024.12.16.628697.

The target of the assay is USP1/UAF1 (UniProt O94782). Kind of assay: global kinetic fit.
UniProt O94782, sequence (O94782 21-785 G670A/G671A, chain 1 of 2): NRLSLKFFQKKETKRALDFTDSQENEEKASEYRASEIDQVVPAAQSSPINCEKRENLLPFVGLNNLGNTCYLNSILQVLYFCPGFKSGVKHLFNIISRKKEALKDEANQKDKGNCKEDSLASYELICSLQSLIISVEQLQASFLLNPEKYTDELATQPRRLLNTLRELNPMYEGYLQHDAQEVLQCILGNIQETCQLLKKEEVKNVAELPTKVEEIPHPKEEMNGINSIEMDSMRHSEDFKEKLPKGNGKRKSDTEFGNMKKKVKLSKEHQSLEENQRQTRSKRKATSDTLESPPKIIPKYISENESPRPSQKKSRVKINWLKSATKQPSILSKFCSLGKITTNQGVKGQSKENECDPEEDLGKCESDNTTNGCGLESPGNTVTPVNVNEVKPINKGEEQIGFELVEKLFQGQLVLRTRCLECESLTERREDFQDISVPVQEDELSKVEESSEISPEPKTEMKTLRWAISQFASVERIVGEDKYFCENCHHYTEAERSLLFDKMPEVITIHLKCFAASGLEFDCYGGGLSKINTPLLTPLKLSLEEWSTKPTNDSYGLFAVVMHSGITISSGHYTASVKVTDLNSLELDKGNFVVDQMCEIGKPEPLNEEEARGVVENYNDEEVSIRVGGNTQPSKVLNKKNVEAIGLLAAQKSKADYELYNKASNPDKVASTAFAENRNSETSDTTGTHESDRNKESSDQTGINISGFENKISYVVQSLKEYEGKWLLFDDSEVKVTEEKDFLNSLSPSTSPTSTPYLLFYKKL
UniProt O94782, sequence (Q8TAF3 9-677, chain 2 of 2, further chain): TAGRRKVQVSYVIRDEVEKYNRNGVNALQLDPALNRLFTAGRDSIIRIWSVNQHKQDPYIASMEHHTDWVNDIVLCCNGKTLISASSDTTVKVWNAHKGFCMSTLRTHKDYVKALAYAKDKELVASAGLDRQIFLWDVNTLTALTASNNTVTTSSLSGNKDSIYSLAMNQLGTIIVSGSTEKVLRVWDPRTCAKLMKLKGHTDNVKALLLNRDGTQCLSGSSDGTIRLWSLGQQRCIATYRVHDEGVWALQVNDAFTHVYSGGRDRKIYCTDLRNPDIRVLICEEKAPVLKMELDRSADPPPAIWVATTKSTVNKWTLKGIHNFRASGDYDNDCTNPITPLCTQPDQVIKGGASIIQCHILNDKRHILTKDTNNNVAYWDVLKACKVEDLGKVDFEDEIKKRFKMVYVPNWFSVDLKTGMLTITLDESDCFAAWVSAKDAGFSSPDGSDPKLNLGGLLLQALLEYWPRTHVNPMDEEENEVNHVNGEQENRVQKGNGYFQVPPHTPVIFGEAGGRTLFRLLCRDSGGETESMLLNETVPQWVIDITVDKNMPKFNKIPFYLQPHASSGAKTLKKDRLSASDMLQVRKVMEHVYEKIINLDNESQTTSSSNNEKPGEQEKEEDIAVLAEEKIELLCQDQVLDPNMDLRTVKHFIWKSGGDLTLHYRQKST

As for “K63-linked diubiquitinated PCNA (K63-PCNA-Ub2) (from UniProt P12004 1-261; P0CG48 1-76; P0CG48 1-76) (complex)”, the koff (as a rule, the rate constant with which the complex falls apart) was 1240 s⁻¹.
